{"source": "patent EP4640708A1", "about": "(Chimagen Biosciences, Ltd, dated 2025)", "key": {"[1]": {"biological_target": "T1, human GPRC5D (hGPRC5D) on cells (human, UniProt Q9NZD1 1-345)", "T1 construct": "whole, on cells; also called HEK293-hGPRC5D; CHOS-hGPRC5D", "T1 sequence (Q9NZD1 whole entry)": "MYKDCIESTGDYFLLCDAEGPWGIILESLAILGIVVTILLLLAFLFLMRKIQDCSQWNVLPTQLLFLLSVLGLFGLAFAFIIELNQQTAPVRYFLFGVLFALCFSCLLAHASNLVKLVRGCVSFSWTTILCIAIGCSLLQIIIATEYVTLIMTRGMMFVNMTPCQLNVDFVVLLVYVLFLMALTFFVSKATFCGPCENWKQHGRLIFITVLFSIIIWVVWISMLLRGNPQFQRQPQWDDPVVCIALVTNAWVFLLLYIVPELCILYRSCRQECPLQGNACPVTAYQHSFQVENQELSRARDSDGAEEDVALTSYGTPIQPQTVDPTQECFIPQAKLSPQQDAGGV", "assay": "flow cytometry, MM.1R cells naturally expressing GPRC5D"}, "[2]": {"biological_target": "T1, human GPRC5D (hGPRC5D) on cells", "assay": "flow cytometry, NCI-H929 cells naturally expressing GPRC5D"}, "[3]": {"biological_target": "T1, human GPRC5D (hGPRC5D) on cells", "assay": "flow cytometry, RPMI-8226 cells naturally expressing GPRC5D"}}, "data": [{"binder": "GC5B596 (antibody, V domains shown) VH: QVQLVQSGAEVKKPGASVKVSCKASGYSFTGYTMNWVRQAPGQGLEWMGLINPYNSDTNYAQKLQGRVTMTTDTSTSTAYMELRSLRSDDTAVYYCARVALRVALDYWGQGTLVTVSS VL: DIQMTQSPSSLSASVGDRVTITCKASQNVATHVGWYQQKPGKAPKRLIYSASYRYSGVPSRFSGSGSGTEFTLTISNLQPEDFATYYCQQYNRYPYTFGQGTKLEIKR", "values": [{"measurement": "EC50", "setting": "[1]", "result": 7.2, "unit": "µg/mL"}, {"measurement": "EC50", "setting": "[2]", "result": 9.52, "unit": "µg/mL"}, {"measurement": "EC50", "setting": "[3]", "result": 14.3, "unit": "µg/mL"}]}]}
